Measured values as given in patent US20260297172 (published 2026).
Numbering of substitutions follows the chain as printed.

T1: S100A8/A9 (human, UniProt P05109)
T1 chain 1: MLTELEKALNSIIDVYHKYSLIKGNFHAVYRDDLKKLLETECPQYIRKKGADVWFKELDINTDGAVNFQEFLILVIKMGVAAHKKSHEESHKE
T1 chain 2: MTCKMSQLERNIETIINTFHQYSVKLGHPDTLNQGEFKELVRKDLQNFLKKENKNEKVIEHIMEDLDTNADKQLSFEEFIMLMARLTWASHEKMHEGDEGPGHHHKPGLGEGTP

T2: S100A9 (human, UniProt P06702)
T2 chain: T1 chain 2

T3: S100A8 (human, UniProt P05109)
T3 chain: T1 chain 1

B1: 8H6-mIgG2a (antibody, V domains shown)
VH: CQSLEESGGDLVKPEGSLTLTCKASGFSFSSGCWVCWVRQAPGKGLEWIACIYTGDGDTYYANWARGRFTVSRTSSTTVTLQLTSLTAADTATYFCASPQPGDITYLGFWGPGTLVTVSS
VL: DIVMTQTPASVSEPVGGTVTIKCQASQNINSYLSWYQQRPGQPPKLLISLASDLASGVPSRFKGSESGTDYTLTISDLECADAATYYCQGYFADSGSSGRSWAFGGGTEVVVQG
B2: 6C8-mIgG2a (antibody, V domains shown)
VH: QEQLVESGGGLVTLGGSLKLSCKASGIDFSIYGISWVRQAPGKGLEWIAYIYPDYSTTDYASWVNGRFTISFDNAQNTVFLEMTSLTAADTATYFCARRYSGYYGLWGPGTLVTVSS
VL: ALVMTQTPSSVSAPVGGTVTIKCQASQSISSYLAWYQQKPGQRPKLLIYGASSLESGVPSRFKGSGSGTEYTLTISDLECDDAATYYCQGAHAGSSADAFGGGTEVVVKG
B3: 8H6 (antibody, V domains shown)
VH: B1 VH
VL: B1 VL
B4: 14G9 (antibody, V domains shown)
VH: QEQLVESGGGLVQPEGSLTLTCTASGFSFSSDYYMCWVRQAPGKGLEWIACIGGGYGGSPYYATWAKGRFTISKTSSTAVTLQMTSLTAADTATHFCARGVPGSSCFFDLWGPGTLVTVSS
VL: DVAMTQTPASVSEPVGGTVTIKCQASQSIGSSLAWYQQKSGQPPKLLIYDAFDLASGVSSRFKGSGSGTEYTLTISDLECADAATYFCLGGYYDANTFGGGTEVVVKG
B5: ROIS-2 (antibody, V domains shown)
VH: NVQLVESGGGLIHPGGSLSLSCKASGFSFSSGCWVCWVRQAPGKGLEWVACIYTGDGDTYYADSVKGRFTISRTSSKTTVYLQMNSLRAEDTAVYYCASPQPGDITYLGFWGQGTLVTVSS
VL: DIHMTQSPSSLSASVGDTVTITCQASQNINSYLSWYQQKPGKAPKLLISLASDLASGVPSRFSGSESGTDYTLTISSLQPEDFATYYCQGYFADSGSSGRSWAFGQGTKVEIKR
B6: ROIS-5 (antibody, V domains shown)
VH: QVSLEESGGDLVQPGGSLRLACVASGFSFSSGCWVCWVRQAPGKGLEWVSCIYTGDGDTYYANSVRGRFTVSRRNSTTSVYLQMNSLRADDTALYFCASPQPGDITYLGFWGPGTLVTVSS
VL: B5 VL
B7: ROIS-3 (antibody, V domains shown)
VH: B6 VH with R74Q
VL: B5 VL
B8: ROIS-1 (antibody, V domains shown)
VH: B5 VH with K66R
VL: B5 VL with K39E
B9: ROIS-4 (antibody, V domains shown)
VH: B6 VH with R74K
VL: B5 VL
B10: 8H6-HC (antibody, V domains shown)
VH: B1 VH
VL: B1 VL
B11: 6C8 (antibody, V domains shown)
VH: B2 VH
VL: B2 VL

Target: T1, S100A8/A9
Assay: competition ELISA, blocking CD69 binding

| Binder | IC50 |
| --- | --- |
| B1 | ~1.25 µg/mL |
| B2 | ~2.5 µg/mL |

Target: T2, S100A9
Assay: ELISA

| Binder | binding result |
| --- | --- |
| B3 | no binding |
| B4 | no binding |

Target: T1, S100A8/A9
Assay: BLI

| Binder | Kd |
| --- | --- |
| B5 | 0.608 nM |
| B6 | 0.623 nM |
| B7 | 0.0477 nM |
| B8 | 0.789 nM |
| B9 | 1.76 nM |
| B10 | 1.37 nM |

Target: T3, S100A8
Assay: ELISA

| Binder | binding result |
| --- | --- |
| B11 | no binding |
| B4 | no binding |
